Reference: publication PMC9255746

Biological target: Paracoccidioides americana (Pb03) Cbp1 (Paracoccidioides americana (Pb03))
Assay: crystal structure

“Paracoccidioides americana (Pb03) Cbp1 (natural protein)” showed a stoichiometry N of 2.
